From PMC13544220, “Glycemic and bodyweight effects of GIPR coding variation reflect differences in surface expression and intrinsic functional impairment” (Science Advances, 2026)
Substitutions are numbered along the chain they refer to. Numbers in names are those of the source.

Assays:
Type in all cases: cell-based, human
[1] = test system: wild-type and variant SNAP-GIPR; experiment: Constitutive and agonist-mediated internalization, reversible SNAP-tag labelling, AD293 cells; set-up: key to Internalisation, Vehicle / Internalisation, +GIP / Internalisation, GIP-only: % internalization: residual fluorescence after Mesna vs pre-Mesna; Surface expression: unit not given here; settings: Mean; for +GIP internalisation (100 nM) / GIP-specific internalisation (100 nM) / Constitutive internalisation (100 nM) / Surface expression: Fig 4E; for +GIP internalisation (100 nM) / GIP-specific internalisation (100 nM): GIP 100 nM; for Internalisation, +GIP / Internalisation, GIP-only / Internalisation, Vehicle: Fig S4C, AD293
Procedure, shortened: (§1)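 Percentage internalization calculated as specific SNAP fluorescence remaining after 10 min Mesna exposure, relative to pre-Mesna signal, imaged in TNE buffer (pH 8.6).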

[2] = test system: wild-type and variant SNAP-GIPR; experiment: Constitutive and agonist-mediated internalization, reversible SNAP-tag labelling, INS-1 cells; set-up: key to Internalisation, GIP-only / Internalisation, Vehicle / Internalisation, +GIP: % internalization: residual fluorescence after Mesna vs pre-Mesna; settings: Mean; for +GIP internalisation (100 nM) / GIP-specific internalisation (100 nM) / Constitutive internalisation (100 nM): Fig 4G; for +GIP internalisation (100 nM) / GIP-specific internalisation (100 nM): GIP 100 nM; for Internalisation, +GIP / Internalisation, GIP-only / Internalisation, Vehicle: Fig S4C, INS-1
Procedure, shortened: as §1

[3] = test system: wild-type and variant SNAP-GIPR; experiment: cADDis cAMP imaging in AD293 cells, ensemble, expression-matched and per decile; settings: Fig S3F, cADDis, mean;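 also: Ensemble cells as % of IBMX/FSK response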
Procedure, shortened: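 AD293 cells reverse-transfected with wild-type or variant SNAP-GIPR plus cADDis Green Up sensor, variants run in parallel. After 24 h, surface receptor labelled with SNAP-Surface Alexa Fluor 647 (500 nM); single-cell cADDis fluorescence imaged at 37 °C in KRBH, 6 mM glucose, 0.1% BSA. Responses given ensemble, expression-matched by wild-type deciles, or per own decile.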

[4] = test system: wild-type and variant SNAP-GIPR; experiment: Single-concentration GIP cAMP response by HTRF in AD293 cells; settings: Fig S3F, HTRF, mean;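 also: ratio to experiment-wide average response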
Method: (§2) All variants were tested in parallel on each occasion to control for transfection efficiency differences between experiments.

[5] = test system: wild-type and variant SNAP-GIPR; experiment: Surface SNAP-GIPR expression (SNAP-tag labelling) in AD293 cells; settings: for AD293 Surface: Fig S3E, mean; for Surface SNAP-GIPR expression: sheet Fig 1C;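 as to all read-outs here: scaled to the experimental average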
Procedure, shortened: (§3)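 Read-out: whole-cell fluorescence of surface-only SNAP label (Alexa Fluor 647, 500 nM, 10 min, RT), wide-field 20X, several FOVs per well. Flat-field corrected, phase-contrast masked, nontransfected-well signal subtracted; normalized to experiment mean or wild-type.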

[6] = test system: wild-type and variant SNAP-GIPR; experiment: Single-concentration GIP cAMP response by HTRF in INS-1 cells; settings: Fig S3E, mean
Method: as §2

[7] = test system: wild-type and variant SNAP-GIPR; experiment: Surface SNAP-GIPR expression (SNAP-tag labelling) in INS-1 cells; settings: Fig 4G; Mean
Procedure, shortened: as §3

[8] = column repeated, paired with cAMP 100 nM

B1: L100F (protein, UniProt P48546 22-466, looked up, variant L100F)
Gastric inhibitory …: RAETGSKGQTAGELYQRWERYRRECQETLAAAEPPSGLACNGSFDMYVCWDYAAPNATARASCPWYLPWHHHVAAGFVFRQCGSDGQWGLWRDHTQCENPEKNEAFLDQRLILERLQVMYTVGYSLSLATLLLALLILSLFRRLHCTRNYIHINLFTSFMLRAAAILSRDRLLPRPGPYLGDQALALWNQALAACRTAQIVTQYCVGANYTWLLVEGVYLHSLLVLVGGSEEGHFRYYLLLGWGAPALFVIPWVIVRYLYENTQCWERNEVKAIWWIIRTPILMTILINFLIFIRILGILLSKLRTRQMRCRDYRLRLARSTLTLVPLLGVHEVVFAPVTEEQARGALRFAKLGFEIFLSSFQGFLVSVLYCFINKEVQSEIRRGWHHCRLRRSLGEEQRQLPERAFRALPSGSGPGEVPTSRGLSSGTLPGPGNEASRELESYC
[1]
  +GIP internalisation (100 nM): 0.8469
  GIP-specific internalisation (100 nM): 0.2452
  Constitutive internalisation (100 nM): 0.6017
  Surface expression: 1.442
  Internalisation, +GIP: 58.6424
  Internalisation, GIP-only: 16.9646
  Internalisation, Vehicle: 41.6779
[2]
  +GIP internalisation (100 nM): 0.7901
  GIP-specific internalisation (100 nM): 0.1883
  Constitutive internalisation (100 nM): 0.6018
  Internalisation, +GIP: 47.6567
  Internalisation, GIP-only: 11.2267
  Internalisation, Vehicle: 36.43
[3]
  AD293 100 pM cADDis: 37.4091
  AD293 100 nM cADDis: 36.85
[4]
  AD293 100 pM HTRF: 1.607
  AD293 100 nM HTRF: 1.598
[5]; [8]
  AD293 Surface: 1.501
[5]; paired with cAMP 100 pM
  AD293 Surface: 1.501
[5]; replicate 1
  Surface SNAP-GIPR expression: 1.524
[5]; replicate 2
  Surface SNAP-GIPR expression: 1.675
[5]; replicate 3
  Surface SNAP-GIPR expression: 1.679
[5]; replicate 4
  Surface SNAP-GIPR expression: 1.13
[5]; replicate 5
  Surface SNAP-GIPR expression: 1.597
[5]; replicate 6
  Surface SNAP-GIPR expression: 1.532
[5]; replicate 7
  Surface SNAP-GIPR expression: 1.271
[5]; replicate 8
  Surface SNAP-GIPR expression: 1.313
[5]; replicate 9
  Surface SNAP-GIPR expression: 1.282
[5]; replicate 10
  Surface SNAP-GIPR expression: 1.519
[5]; replicate 11
  Surface SNAP-GIPR expression: 1.303
[5]; replicate 12
  Surface SNAP-GIPR expression: 1.295
[5]; replicate 13
  Surface SNAP-GIPR expression: 1.669
[5]; replicate 14
  Surface SNAP-GIPR expression: 1.299
[5]; replicate 15
  Surface SNAP-GIPR expression: 1.522
[5]; replicate 16
  Surface SNAP-GIPR expression: 1.442
[5]; replicate 17
  Surface SNAP-GIPR expression: 1.643
[5]; replicate 18
  Surface SNAP-GIPR expression: 1.736
[5]; replicate 19
  Surface SNAP-GIPR expression: 1.668
[5]; replicate 20
  Surface SNAP-GIPR expression: 1.712
[5]; replicate 21
  Surface SNAP-GIPR expression: 1.622
[5]; replicate 22
  Surface SNAP-GIPR expression: 1.675
[5]; replicate 23
  Surface SNAP-GIPR expression: 1.531
[5]; replicate 24
  Surface SNAP-GIPR expression: 1.559
[5]; replicate 25
  Surface SNAP-GIPR expression: 1.328
[5]; replicate 26
  Surface SNAP-GIPR expression: 1.878
[5]; replicate 27
  Surface SNAP-GIPR expression: 1.259
[5]; replicate 28
  Surface SNAP-GIPR expression: 1.697
[5]; replicate 29
  Surface SNAP-GIPR expression: 1.401
[5]; replicate 30
  Surface SNAP-GIPR expression: 1.456
[5]; replicate 31
  Surface SNAP-GIPR expression: 1.661
[5]; replicate 32
  Surface SNAP-GIPR expression: 1.58
[5]; replicate 33
  Surface SNAP-GIPR expression: 1.459
[5]; replicate 34
  Surface SNAP-GIPR expression: 1.249
[5]; replicate 35
  Surface SNAP-GIPR expression: 1.682
[5]; replicate 36
  Surface SNAP-GIPR expression: 1.611
[5]; replicate 37
  Surface SNAP-GIPR expression: 1.381
[5]; replicate 38
  Surface SNAP-GIPR expression: 1.301
[5]; replicate 39
  Surface SNAP-GIPR expression: 1.418
[5]; replicate 40
  Surface SNAP-GIPR expression: 1.406
[5]; replicate 41
  Surface SNAP-GIPR expression: 1.553
[6]
  INS-1 cAMP (100 nM): 1.416
[7]
  Surface expression: 1.643

B2: A207V (protein)
chain: B1 Gastric inhibitory … with F79L, A186V
[1]
  +GIP internalisation (100 nM): 0.7742
  GIP-specific internalisation (100 nM): 0.2212
  Constitutive internalisation (100 nM): 0.553
  Surface expression: 1.34
  Internalisation, +GIP: 58.1109
  Internalisation, GIP-only: 16.6766
  Internalisation, Vehicle: 41.4343
[2]
  +GIP internalisation (100 nM): 0.5824
  GIP-specific internalisation (100 nM): 0.1595
  Constitutive internalisation (100 nM): 0.4229
  Internalisation, +GIP: 49.74
  Internalisation, GIP-only: 13.34
  Internalisation, Vehicle: 36.4
[3]
  AD293 100 pM cADDis: 35.8816
  AD293 100 nM cADDis: 38.26
[4]
  AD293 100 pM HTRF: 1.772
  AD293 100 nM HTRF: 1.3964
[5]; [8]
  AD293 Surface: 1.462
[5]; paired with cAMP 100 pM
  AD293 Surface: 1.462
[5]; replicate 1
  Surface SNAP-GIPR expression: 1.611
[5]; replicate 2
  Surface SNAP-GIPR expression: 2.305
[5]; replicate 3
  Surface SNAP-GIPR expression: 1.718
[5]; replicate 4
  Surface SNAP-GIPR expression: 1.422
[5]; replicate 5
  Surface SNAP-GIPR expression: 1.389
[5]; replicate 6
  Surface SNAP-GIPR expression: 1.632
[5]; replicate 7
  Surface SNAP-GIPR expression: 1.104
[5]; replicate 8
  Surface SNAP-GIPR expression: 1.459
[5]; replicate 9
  Surface SNAP-GIPR expression: 1.373
[5]; replicate 10
  Surface SNAP-GIPR expression: 1.394
[5]; replicate 11
  Surface SNAP-GIPR expression: 1.581
[5]; replicate 12
  Surface SNAP-GIPR expression: 1.452
[5]; replicate 13
  Surface SNAP-GIPR expression: 1.286
[5]; replicate 14
  Surface SNAP-GIPR expression: 1.785
[5]; replicate 15
  Surface SNAP-GIPR expression: 1.758
[5]; replicate 16
  Surface SNAP-GIPR expression: 1.437
[5]; replicate 17
  Surface SNAP-GIPR expression: 1.378
[5]; replicate 18
  Surface SNAP-GIPR expression: 1.497
[5]; replicate 19
  Surface SNAP-GIPR expression: 1.272
[5]; replicate 20
  Surface SNAP-GIPR expression: 1.519
[5]; replicate 21
  Surface SNAP-GIPR expression: 1.502
[5]; replicate 22
  Surface SNAP-GIPR expression: 1.331
[5]; replicate 23
  Surface SNAP-GIPR expression: 1.374
[5]; replicate 24
  Surface SNAP-GIPR expression: 1.462
[5]; replicate 25
  Surface SNAP-GIPR expression: 1.289
[5]; replicate 26
  Surface SNAP-GIPR expression: 1.598
[5]; replicate 27
  Surface SNAP-GIPR expression: 1.353
[5]; replicate 28
  Surface SNAP-GIPR expression: 1.177
[5]; replicate 29
  Surface SNAP-GIPR expression: 1.377
[5]; replicate 30
  Surface SNAP-GIPR expression: 1.555
[5]; replicate 31
  Surface SNAP-GIPR expression: 1.582
[5]; replicate 32
  Surface SNAP-GIPR expression: 1.61
[5]; replicate 33
  Surface SNAP-GIPR expression: 1.695
[5]; replicate 34
  Surface SNAP-GIPR expression: 1.496
[5]; replicate 35
  Surface SNAP-GIPR expression: 1.543
[5]; replicate 36
  Surface SNAP-GIPR expression: 1.703
[5]; replicate 37
  Surface SNAP-GIPR expression: 1.143
[5]; replicate 38
  Surface SNAP-GIPR expression: 1.04
[5]; replicate 39
  Surface SNAP-GIPR expression: 1.054
[5]; replicate 40
  Surface SNAP-GIPR expression: 1.392
[5]; replicate 41
  Surface SNAP-GIPR expression: 1.284
[6]
  INS-1 cAMP (100 nM): 1.4138
[7]
  Surface expression: 1.239
